Several values for one entry are separate records, joined by “and”; a condition that tells them apart may be missing. Equal entries are not always repeated.
Target: the molecule itself
Assay: cryo-EM structure

B1: Hendra henipavirus nucleoprotein (natural protein)
chain: MSDIFDEAASFRSYQSKLGRDGRASAATATLTTKIRIFVPATNSPELRWELTLFALDVIRSPSAAESMKIGAAFTLISMYSERPGALIRSLLNDPDIEAVIIDVGSMLNGIPVMERRGDKAQEEMEGLMRILKTARESSKGKTPFVDSRAYGLRITDMSTLVSAVITIEAQIWILIAKAVTAPDTAEESETRRWAKYVQQKRVNPFFALTQQWLTEMRNLLSQSLSVRKFMVEILMEVKKGGSAKGRAVEIISDIGNYVEETGMAGFFATIRFGLETRYPALALNEFQSDLNTIKGLMLLYREIGPRAPYMVLLEESIQTKFAPGGYPLLWSFAMGVATTIDRSMGALNINRGYLEPMYFRLGQKSARHHAGGIDQNMANKLGLNSDQVAELAAAVQETSVGRQDNNMQAREAKFAAGGVLVGGGEQDIDEEEEPIEHSGRQSVTFKREMSMSSLADSVPSSSVSTSGGTRLTNSLLNLRSRLAAKAIKESTAQSSSERNPPNNRPQADSGRKDDQEPKPAQNDLDFVRADV
notes: copies: 28
With B1 the “stoichiometry N” value was 14 protomers per ring and 28 protomers per double-ring assembly.
